{
  "source": "patent US11499162B2",
  "about": "“Plants having increased tolerance to herbicides” (BASF SE, priority 2016, dated 2022)",
  "molecules": {"B1": {"name": "Q96A: mutated TriA variant of SEQ ID NO: 2 (protein)", "chain": "MQTLSIQHGTLVTMDQYRRVLGDSWVHVQDGRIVALGVHAESVPPPADRVIDARGKVVLPGFINAHTHVNQILLRGGPSHGRQLYDWLFNVLYPGAKAMRPEDVAVAVRLYCAEAVRSGITTINDNADSAIYPGNIEAAMAVYGEVGVRVVYARMFFDRMDGRIQGYVDALKARSPQVELCSIMEETAVAKDRITALSDQYHGTAGGRISVWPAPAITPAVTVEGMRWAQAFARDRAVMWTLHMAESDHDERLHWMSPAEYMECYGLLDERLQVAHCVYFDRKDVRLLHRHNVKVASQVVSNAYLGSGVAPVPEMVERGMAVGIGTDDGNCNDSVNMIGDMKFMAHIHRAVHRDADVLTPEKILEMATIDGARSLGMDHEIGSIETGKRADLILLDLRHPQTTPHHHLAATIVFQAYGNEVDTVLIDGNVVMENRRLSFLPPERELAFLEEAQSRATAILQRANMVANPAWRSL", "modifications": "Pseudomonas"}, "B2": {"name": "N70T: mutated TriA variant of SEQ ID NO: 2 (protein)", "chain": "B1 chain with N70T, A96Q", "modifications": "Pseudomonas"}, "B3": {"name": "I217A: mutated TriA variant of SEQ ID NO: 2 (protein)", "chain": "B1 chain with A96Q, I217A", "modifications": "Pseudomonas"}, "B4": {"name": "I217T: mutated TriA variant of SEQ ID NO: 2 (protein)", "chain": "B1 chain with A96Q, I217T", "modifications": "Pseudomonas"}, "B5": {"name": "M155E: mutated TriA variant of SEQ ID NO: 2 (protein)", "chain": "B1 chain with A96Q, M155E", "modifications": "Pseudomonas"}, "B6": {"name": "D128A: mutated TriA variant of SEQ ID NO: 2 (protein)", "chain": "B1 chain with A96Q, D128A", "modifications": "Pseudomonas"}, "B7": {"name": "A220T: mutated TriA variant of SEQ ID NO: 2 (protein)", "chain": "B1 chain with A96Q, A220T", "modifications": "Pseudomonas"}, "B8": {"name": "L841L88AY167I: mutated TriA variant of SEQ ID NO: 2 (protein)", "chain": "B1 chain with L84I, L88A, A96Q, Y167I", "modifications": "Pseudomonas"}, "B9": {"name": "N126D: mutated TriA variant of SEQ ID NO: 2 (protein)", "chain": "B1 chain with A96Q, N126D", "modifications": "Pseudomonas"}, "B10": {"name": "M155G: mutated TriA variant of SEQ ID NO: 2 (protein)", "chain": "B1 chain with A96Q, M155G", "modifications": "Pseudomonas"}, "B11": {"name": "Q96N: mutated TriA variant of SEQ ID NO: 2 (protein)", "chain": "B1 chain with A96N", "modifications": "Pseudomonas"}, "B12": {"name": "N126M: mutated TriA variant of SEQ ID NO: 2 (protein)", "chain": "B1 chain with A96Q, N126M", "modifications": "Pseudomonas"}, "B13": {"name": "N126S: mutated TriA variant of SEQ ID NO: 2 (protein)", "chain": "B1 chain with A96Q, N126S", "modifications": "Pseudomonas"}, "B14": {"name": "A216S: mutated TriA variant of SEQ ID NO: 2 (protein)", "chain": "B1 chain with A96Q, A216S", "modifications": "Pseudomonas"}, "B15": {"name": "N126A: mutated TriA variant of SEQ ID NO: 2 (protein)", "chain": "B1 chain with A96Q, N126A", "modifications": "Pseudomonas"}, "B16": {"name": "I217S: mutated TriA variant of SEQ ID NO: 2 (protein)", "chain": "B1 chain with A96Q, I217S", "modifications": "Pseudomonas"}, "B17": {"name": "A220S: mutated TriA variant of SEQ ID NO: 2 (protein)", "chain": "B1 chain with A96Q, A220S", "modifications": "Pseudomonas"}, "B18": {"name": "N70C: mutated TriA variant of SEQ ID NO: 2 (protein)", "chain": "B1 chain with N70C, A96Q", "modifications": "Pseudomonas"}, "B19": {"name": "I217VP219GH249N: mutated TriA variant of SEQ ID NO: 2 (protein)", "chain": "B1 chain with A96Q, I217V, P219G, H249N", "modifications": "Pseudomonas"}, "B20": {"name": "D128N: mutated TriA variant of SEQ ID NO: 2 (protein)", "chain": "B1 chain with A96Q, D128N", "modifications": "Pseudomonas"}, "B21": {"name": "D128S: mutated TriA variant of SEQ ID NO: 2 (protein)", "chain": "B1 chain with A96Q, D128S", "modifications": "Pseudomonas"}, "B22": {"name": "P219GH249N: mutated TriA variant of SEQ ID NO: 2 (protein)", "chain": "B1 chain with A96Q, P219G, H249N", "modifications": "Pseudomonas"}, "B23": {"name": "F157M: mutated TriA variant of SEQ ID NO: 2 (protein)", "chain": "B1 chain with A96Q, F157M", "modifications": "Pseudomonas"}, "B24": {"name": "L84VL88AY167I: mutated TriA variant of SEQ ID NO: 2 (protein)", "chain": "B1 chain with L84V, L88A, A96Q, Y167I", "modifications": "Pseudomonas"}, "B25": {"name": "M155A: mutated TriA variant of SEQ ID NO: 2 (protein)", "chain": "B1 chain with A96Q, M155A", "modifications": "Pseudomonas"}, "B26": {"name": "A220G: mutated TriA variant of SEQ ID NO: 2 (protein)", "chain": "B1 chain with A96Q, A220G", "modifications": "Pseudomonas"}, "B27": {"name": "A216G: mutated TriA variant of SEQ ID NO: 2 (protein)", "chain": "B1 chain with A96Q, A216G", "modifications": "Pseudomonas"}, "B28": {"name": "F157A: mutated TriA variant of SEQ ID NO: 2 (protein)", "chain": "B1 chain with A96Q, F157A", "modifications": "Pseudomonas"}, "B29": {"name": "L88AY167I: mutated TriA variant of SEQ ID NO: 2 (protein)", "chain": "B1 chain with L88A, A96Q, Y167I", "modifications": "Pseudomonas"}},
  "note": "Numbering of substitutions follows the chain as printed. Names and notes keep the numbering of the source.",
  "data": [
    {"assay_type": "biochemical", "conditions": "pH 7.2", "procedure,_shortened": "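TriA variants, N-His-tagged, were expressed in E. coli BL21(DE3) Gold with groEL/groES chaperones and purified by Ni-IDA affinity. Enzyme in 25 mM sodium phosphate pH 7.2 was incubated with azine substrates at 1 nM to 10 nM, 30° C. Products were identified by UPLC-HR-MS.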", "units": {"Degradation in % of 6-cyclopentyl-N4-(2,3,4,5,6-pentafluorophenyl)-1,3,5-triazine-2,4-diamine": "%", "Degradation in % of Melamine": "%"}, "values": [
      {"molecule": "B1", "Degradation in % of 6-cyclopentyl-N4-(2,3,4,5,6-pentafluorophenyl)-1,3,5-triazine-2,4-diamine": 0, "Degradation in % of Melamine": 0},
      {"molecule": "B2", "Degradation in % of 6-cyclopentyl-N4-(2,3,4,5,6-pentafluorophenyl)-1,3,5-triazine-2,4-diamine": 0, "Degradation in % of Melamine": 0},
      {"molecule": "B3", "Degradation in % of 6-cyclopentyl-N4-(2,3,4,5,6-pentafluorophenyl)-1,3,5-triazine-2,4-diamine": 4, "Degradation in % of Melamine": 100},
      {"molecule": "B4", "Degradation in % of 6-cyclopentyl-N4-(2,3,4,5,6-pentafluorophenyl)-1,3,5-triazine-2,4-diamine": 3, "Degradation in % of Melamine": 100},
      {"molecule": "B5", "Degradation in % of 6-cyclopentyl-N4-(2,3,4,5,6-pentafluorophenyl)-1,3,5-triazine-2,4-diamine": 0, "Degradation in % of Melamine": 0},
      {"molecule": "B6", "Degradation in % of 6-cyclopentyl-N4-(2,3,4,5,6-pentafluorophenyl)-1,3,5-triazine-2,4-diamine": 5, "Degradation in % of Melamine": 3},
      {"molecule": "B7", "Degradation in % of 6-cyclopentyl-N4-(2,3,4,5,6-pentafluorophenyl)-1,3,5-triazine-2,4-diamine": 1, "Degradation in % of Melamine": 6},
      {"molecule": "B8", "Degradation in % of 6-cyclopentyl-N4-(2,3,4,5,6-pentafluorophenyl)-1,3,5-triazine-2,4-diamine": 4, "Degradation in % of Melamine": 9},
      {"molecule": "B9", "Degradation in % of 6-cyclopentyl-N4-(2,3,4,5,6-pentafluorophenyl)-1,3,5-triazine-2,4-diamine": 0, "Degradation in % of Melamine": 0},
      {"molecule": "B10", "Degradation in % of 6-cyclopentyl-N4-(2,3,4,5,6-pentafluorophenyl)-1,3,5-triazine-2,4-diamine": 0, "Degradation in % of Melamine": 4},
      {"molecule": "B11", "Degradation in % of 6-cyclopentyl-N4-(2,3,4,5,6-pentafluorophenyl)-1,3,5-triazine-2,4-diamine": 2, "Degradation in % of Melamine": 2},
      {"molecule": "B12", "Degradation in % of 6-cyclopentyl-N4-(2,3,4,5,6-pentafluorophenyl)-1,3,5-triazine-2,4-diamine": 0, "Degradation in % of Melamine": 3},
      {"molecule": "B13", "Degradation in % of 6-cyclopentyl-N4-(2,3,4,5,6-pentafluorophenyl)-1,3,5-triazine-2,4-diamine": 1, "Degradation in % of Melamine": 2},
      {"molecule": "B14", "Degradation in % of 6-cyclopentyl-N4-(2,3,4,5,6-pentafluorophenyl)-1,3,5-triazine-2,4-diamine": 1, "Degradation in % of Melamine": 45},
      {"molecule": "B15", "Degradation in % of 6-cyclopentyl-N4-(2,3,4,5,6-pentafluorophenyl)-1,3,5-triazine-2,4-diamine": 4, "Degradation in % of Melamine": 2},
      {"molecule": "B16", "Degradation in % of 6-cyclopentyl-N4-(2,3,4,5,6-pentafluorophenyl)-1,3,5-triazine-2,4-diamine": 3, "Degradation in % of Melamine": 100},
      {"molecule": "B17", "Degradation in % of 6-cyclopentyl-N4-(2,3,4,5,6-pentafluorophenyl)-1,3,5-triazine-2,4-diamine": 3, "Degradation in % of Melamine": 0},
      {"molecule": "B18", "Degradation in % of 6-cyclopentyl-N4-(2,3,4,5,6-pentafluorophenyl)-1,3,5-triazine-2,4-diamine": 0, "Degradation in % of Melamine": 0},
      {"molecule": "B19", "Degradation in % of 6-cyclopentyl-N4-(2,3,4,5,6-pentafluorophenyl)-1,3,5-triazine-2,4-diamine": 0, "Degradation in % of Melamine": 8},
      {"molecule": "B20", "Degradation in % of 6-cyclopentyl-N4-(2,3,4,5,6-pentafluorophenyl)-1,3,5-triazine-2,4-diamine": 2, "Degradation in % of Melamine": 0},
      {"molecule": "B21", "Degradation in % of 6-cyclopentyl-N4-(2,3,4,5,6-pentafluorophenyl)-1,3,5-triazine-2,4-diamine": 0, "Degradation in % of Melamine": 0},
      {"molecule": "B22", "Degradation in % of 6-cyclopentyl-N4-(2,3,4,5,6-pentafluorophenyl)-1,3,5-triazine-2,4-diamine": 0, "Degradation in % of Melamine": 2},
      {"molecule": "B23", "Degradation in % of 6-cyclopentyl-N4-(2,3,4,5,6-pentafluorophenyl)-1,3,5-triazine-2,4-diamine": 0, "Degradation in % of Melamine": 17},
      {"molecule": "B24", "Degradation in % of 6-cyclopentyl-N4-(2,3,4,5,6-pentafluorophenyl)-1,3,5-triazine-2,4-diamine": 3, "Degradation in % of Melamine": 7},
      {"molecule": "B25", "Degradation in % of 6-cyclopentyl-N4-(2,3,4,5,6-pentafluorophenyl)-1,3,5-triazine-2,4-diamine": 4, "Degradation in % of Melamine": 0},
      {"molecule": "B26", "Degradation in % of 6-cyclopentyl-N4-(2,3,4,5,6-pentafluorophenyl)-1,3,5-triazine-2,4-diamine": 0, "Degradation in % of Melamine": 0},
      {"molecule": "B27", "Degradation in % of 6-cyclopentyl-N4-(2,3,4,5,6-pentafluorophenyl)-1,3,5-triazine-2,4-diamine": 0, "Degradation in % of Melamine": 64},
      {"molecule": "B28", "Degradation in % of 6-cyclopentyl-N4-(2,3,4,5,6-pentafluorophenyl)-1,3,5-triazine-2,4-diamine": 0, "Degradation in % of Melamine": 19},
      {"molecule": "B29", "Degradation in % of 6-cyclopentyl-N4-(2,3,4,5,6-pentafluorophenyl)-1,3,5-triazine-2,4-diamine": 0, "Degradation in % of Melamine": 2}
    ]}
  ]
}
